# Data: publication doi:10.1101/2020.10.14.340034
# Target: nsp16 (2'-O-methyltransferase);nsp10 (SARS-CoV-2;SARS-CoV-2, UniProt P0DTD1;P0DTD1 6799-7096;4254-4392, |)
# Experiment: competition
binder,measurement,value
"ACCCCC (ssRNA, 5' N7-methylguanosine cap (m7Gppp, cap-0); cap G not in strand) [Biotin-RNA N7-meGpppACCCCC-Biotin]",apparent K (half saturation),4.3 µM
